Laboratory results taken from patent US20110212091A1.
pIC50: −log10 of the molar value.

Assays:
[1] = target: Recombinant human FGFR4-Fc (R&D Systems Cat # 685-FR) (human) (UniProt P22455); assay: competition ELISA: FGFR4-Fc preincubated with soluble FGF1, binding to immobilized FGF2-heparin
[2] = target: Recombinant human FGFR4-Fc (R&D Systems Cat # 685-FR) (human) (UniProt P22455); assay: competition ELISA: FGFR4-Fc preincubated with soluble FGF2, binding to immobilized FGF2-heparin

pIC50 [1]	pIC50 [2]	Substance
9.13	–	FGF1 (soluble) (from UniProt P05230 16-155) (ligand)
–	9.16	recombinant human FGF2 (R&D Systems, Cat# 233-FB) (from UniProt P09038 143-288) (ligand)
